B1: Estrogen receptor (Mus musculus), P19785 (parent)
chain: MTMTLHTKASGMALLHQIQGNELEPLNRPQLKMPMERALGEVYVDNSKPTVFNYPEGAAYEFNAAAAAAAAASAPVYGQSGIAYGPGSEAAAFSANSLGAFPQLNSVSPSPLMLLHPPPQLSPFLHPHGQQVPYYLENEPSAYAVRDTGPPAFYRSNSDNRRQNGRERLSSSNEKGNMIMESAKETRYCAVCNDYASGYHYGVWSCEGCKAFFKRSIQGHNDYMCPATNQCTIDKNRRKSCQACRLRKCYEVGMMKGGIRKDRRGGRMLKHKRQRDDLEGRNEMGASGDMRAANLWPSPLVIKHTKKNSPALSLTADQMVSALLDAEPPMIYSEYDPSRPFSEASMMGLLTNLADRELVHMINWAKRVPGFGDLNLHDQVHLLECAWLEILMIGLVWRSMEHPGKLLFAPNLLLDRNQGKCVEGMVEIFDMLLATSSRFRMMNLQGEEFVCLKSIILLNSGVYTFLSSTLKSLEEKDHIHRVLDKITDTLIHLMAKAGLTLQQQHRRLAQLLLILSHIRHMSNKGMEHLYNMKCKNVVPLYDLLLEMLDAHRLHAPASRMGVPPEEPSQTQLATTSSTSAHSLQTYYIPPEAEGFPNTI

Variants of: B1
Details: with cnot1_human CNOT1, A5YKK6
Chain of cnot1_human CNOT1, A5YKK6 (A5YKK6 whole entry): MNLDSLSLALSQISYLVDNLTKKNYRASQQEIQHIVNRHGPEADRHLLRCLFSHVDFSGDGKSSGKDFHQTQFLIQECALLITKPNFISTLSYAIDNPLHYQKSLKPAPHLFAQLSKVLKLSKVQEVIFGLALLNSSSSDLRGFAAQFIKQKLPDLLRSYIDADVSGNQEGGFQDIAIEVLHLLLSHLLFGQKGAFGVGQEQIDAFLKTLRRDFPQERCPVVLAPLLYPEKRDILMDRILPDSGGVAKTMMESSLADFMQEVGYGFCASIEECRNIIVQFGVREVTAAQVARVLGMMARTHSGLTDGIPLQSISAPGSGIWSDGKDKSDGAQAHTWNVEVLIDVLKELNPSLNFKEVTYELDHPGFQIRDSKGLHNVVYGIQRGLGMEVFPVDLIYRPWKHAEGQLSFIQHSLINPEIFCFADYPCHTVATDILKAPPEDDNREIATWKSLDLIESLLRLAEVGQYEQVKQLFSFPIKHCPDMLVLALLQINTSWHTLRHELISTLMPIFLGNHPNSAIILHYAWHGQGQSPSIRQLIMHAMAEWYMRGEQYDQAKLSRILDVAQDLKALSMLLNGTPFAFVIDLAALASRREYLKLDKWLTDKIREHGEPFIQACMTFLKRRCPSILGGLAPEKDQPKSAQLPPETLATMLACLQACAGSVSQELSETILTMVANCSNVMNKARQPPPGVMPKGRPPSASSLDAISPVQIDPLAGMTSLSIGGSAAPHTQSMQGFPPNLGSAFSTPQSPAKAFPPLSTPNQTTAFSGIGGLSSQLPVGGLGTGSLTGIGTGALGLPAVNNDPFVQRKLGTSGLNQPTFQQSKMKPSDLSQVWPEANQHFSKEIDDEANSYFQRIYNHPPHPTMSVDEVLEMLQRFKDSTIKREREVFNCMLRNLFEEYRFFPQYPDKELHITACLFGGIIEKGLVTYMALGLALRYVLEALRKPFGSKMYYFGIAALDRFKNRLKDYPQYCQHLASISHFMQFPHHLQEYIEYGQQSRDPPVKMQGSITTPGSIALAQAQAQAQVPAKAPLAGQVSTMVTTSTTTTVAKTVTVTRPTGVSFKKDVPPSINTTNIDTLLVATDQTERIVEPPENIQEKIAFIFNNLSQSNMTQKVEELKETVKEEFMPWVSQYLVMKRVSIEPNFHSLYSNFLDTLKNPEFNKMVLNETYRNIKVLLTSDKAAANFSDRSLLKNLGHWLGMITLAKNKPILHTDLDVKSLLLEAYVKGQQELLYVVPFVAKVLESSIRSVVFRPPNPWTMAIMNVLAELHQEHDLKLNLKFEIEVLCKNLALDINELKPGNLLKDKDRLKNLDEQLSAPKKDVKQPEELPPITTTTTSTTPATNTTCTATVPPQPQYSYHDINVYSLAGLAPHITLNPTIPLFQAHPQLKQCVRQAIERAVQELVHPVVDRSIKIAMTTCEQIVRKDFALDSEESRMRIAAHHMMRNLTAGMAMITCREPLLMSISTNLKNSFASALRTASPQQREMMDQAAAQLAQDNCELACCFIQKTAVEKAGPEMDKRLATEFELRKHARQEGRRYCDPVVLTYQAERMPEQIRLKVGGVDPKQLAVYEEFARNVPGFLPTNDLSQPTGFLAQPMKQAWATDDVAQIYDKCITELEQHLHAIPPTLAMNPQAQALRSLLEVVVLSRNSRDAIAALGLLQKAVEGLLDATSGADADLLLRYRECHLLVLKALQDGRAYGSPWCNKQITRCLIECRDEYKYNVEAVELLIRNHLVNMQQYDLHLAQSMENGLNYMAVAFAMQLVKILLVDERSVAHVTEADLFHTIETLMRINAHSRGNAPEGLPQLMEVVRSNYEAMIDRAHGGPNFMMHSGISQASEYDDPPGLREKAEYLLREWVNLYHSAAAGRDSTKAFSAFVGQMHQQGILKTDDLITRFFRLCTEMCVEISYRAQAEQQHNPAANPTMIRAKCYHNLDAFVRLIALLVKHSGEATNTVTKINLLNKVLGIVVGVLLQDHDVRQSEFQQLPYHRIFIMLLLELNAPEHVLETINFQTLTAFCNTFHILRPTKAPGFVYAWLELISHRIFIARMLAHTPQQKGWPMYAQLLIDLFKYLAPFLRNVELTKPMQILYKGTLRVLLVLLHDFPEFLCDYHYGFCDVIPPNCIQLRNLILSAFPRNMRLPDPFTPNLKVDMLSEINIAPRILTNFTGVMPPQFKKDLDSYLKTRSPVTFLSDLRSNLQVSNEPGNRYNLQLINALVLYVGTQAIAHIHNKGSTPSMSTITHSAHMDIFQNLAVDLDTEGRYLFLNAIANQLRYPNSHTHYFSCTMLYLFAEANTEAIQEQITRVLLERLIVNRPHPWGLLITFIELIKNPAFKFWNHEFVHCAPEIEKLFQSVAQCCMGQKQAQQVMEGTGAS
In the case of MTMTLHTKASGMALLHQIQGNELEPLNRPQLKMPMERALGEVYVDNSKPTVFNYPEGAAYEFNAAAAAAAAASAPVYGQSGIAYGPGSEAAAFSANSLGAFPQLNSVSPSPLMLLHPPPQLSPFLHPHGQQVPYYLENEPSAYAVRDTGPPAFYRSNSDNRRQNGRERLSSSNEKGNMIMESAKETRYCAVCNDYASGYHYGVWSCEGCKAFFKRSIQGHNDYMCPATNQCTIDKNRRKSCQACRLRKCYEVGMMKGGIRKDRRGGRMLKHKRQRDDLEGRNEMGASGDMRAANLWPSPLVIKHTKKNSPALSLTADQMVSALLDAEPPMIYSEYDPSRPFSEASMMGLLTNLADRELVHMINWAKRVPGFGDLNLHDQVHLLECAWLEILMIGLVWRSMEHPGKLLFAPNLLLDRNQGKCVEGMVEIFDMLLATSSRFRMMNLQGEEFVCLKSIILLNSGVYTFLSSTLKSLEEKDHIHRVLDKITDTLIHLMAKAGLTLQQQHRRLAQLLLILSHIRHMSNKGMEHLYNMKCKNVVPLYDLLLEMADAHRLHAPASRMGVPPEEPSQTQLATTSSTSAHSLQTYYIPPEAEGFPNTI [L548A], the “effect of a mutation on the interaction” value is reported as “disrupting interaction”. For MTMTLHTKASGMALLHQIQGNELEPLNRPQLKMPMERALGEVYVDNSKPTVFNYPEGAAYEFNAAAAAAAAASAPVYGQSGIAYGPGSEAAAFSANSLGAFPQLNSVSPSPLMLLHPPPQLSPFLHPHGQQVPYYLENEPSAYAVRDTGPPAFYRSNSDNRRQNGRERLSSSNEKGNMIMESAKETRYCAVCNDYASGYHYGVWSCEGCKAFFKRSIQGHNDYMCPATNQCTIDKNRRKSCQACRLRKCYEVGMMKGGIRKDRRGGRMLKHKRQRDDLEGRNEMGASGDMRAANLWPSPLVIKHTKKNSPALSLTADQMVSALLDAEPPMIYSEYDPSRPFSEASMMGLLTNLADRELVHMINWAKRVPGFGDLNLHDQVHLLECAWLEILMIGLVWRSMEHPGKLLFAPNLLLDRNQGKCVEGMVEIFDMLLATSSRFRMMNLQGEEFVCLKSIILLNSGVYTFLSSTLKSLEEKDHIHRVLDKITDTLIHLMAKAGLTLQQQHRRLAQLLLILSHIRHMSNKGMEHLYNMKCKNVVPLYDLLLEALDAHRLHAPASRMGVPPEEPSQTQLATTSSTSAHSLQTYYIPPEAEGFPNTI [M547A], the “effect of a mutation on the interaction” value was “disrupting interaction”.

— IntAct's records for PubMed 16778766
